Assay results as given in US11701440B2, “Modified antibody and radioactive metal-labelled antibody” (NIHON MEDI-PHYSICS CO., LTD., priority 2018, dated 2023).

Experiment: Animal Experiment (1): radioactivity distribution of 111In-labeled NGA in organs after tail vein administration
Method: Five mice per group were slaughtered 5 minutes or 1 hour after the administration, the blood and organs of interest were recovered, and after measuring the organ weight, the radioactivity was measured with an auto-well gamma counter.

[1] = mouse, in vivo, iv, 11.1 kBq/8 ug protein/100 uL/mouse, 5 min
[2] = mouse, in vivo, iv, 11.1 kBq/8 ug protein/100 uL/mouse, 1 h
[3] = 5 minutes after the administration, tail vein, male ddY mouse
[4] = 1 hour after the administration, tail vein, male ddY mouse

Substance: ^111In-DO3ABn-Phe-Lys-NGA
- radioactivity (% ID) Blood [1]: 0.1 ± 0.0 % ID
- radioactivity (% ID) Kidney [1]: 0.2 ± 0.0 % ID
- radioactivity (% ID) Liver [1]: 91.1 ± 6.2 % ID
- radioactivity (% ID) Lung [1]: 0.1 ± 0.0 % ID
- radioactivity (% ID) Small intestine [1]: 0.1 ± 0.1 % ID
- radioactivity (% ID) Spleen [1]: 0.2 ± 0.0 % ID
- radioactivity (% ID) Stomach [1]: 0.1 ± 0.1 % ID
- radioactivity (% ID) Kidney [2]: 0.9 ± 0.3 % ID
- radioactivity (% ID) Liver [2]: 49.5 ± 5.6 % ID
- radioactivity (% ID) Lung [2]: 0.1 ± 0.1 % ID
- radioactivity (% ID) Small intestine [2]: 27.8 ± 6.5 % ID
- radioactivity (% ID) Spleen [2]: 0.2 ± 0.1 % ID
- radioactivity (% ID) Stomach [2]: 1.1 ± 0.7 % ID

Substance: ^111In-DO3ABn-Gly-Lys-NGA
- radioactivity (% ID) Blood [3]: 0.1 ± 0.2 % ID
- radioactivity (% ID) Heart [3]: 0.0 ± 0.0 % ID
- radioactivity (% ID) Kidney [3]: 0.1 ± 0.0 % ID
- radioactivity (% ID) Liver [3]: 89.5 ± 3.4 % ID
- radioactivity (% ID) Lung [3]: 0.1 ± 0.1 % ID
- radioactivity (% ID) Pancreas [3]: 0.0 ± 0.0 % ID
- radioactivity (% ID) Small intestine [3]: 0.1 ± 0.1 % ID
- radioactivity (% ID) Spleen [3]: 0.2 ± 0.0 % ID
- radioactivity (% ID) Stomach [3]: 0.1 ± 0.1 % ID
- radioactivity (% ID) Blood [4]: 0.0 ± 0.0 % ID
- radioactivity (% ID) Heart [4]: 0.0 ± 0.0 % ID
- radioactivity (% ID) Kidney [4]: 0.2 ± 0.0 % ID
- radioactivity (% ID) Liver [4]: 89.1 ± 1.2 % ID
- radioactivity (% ID) Lung [4]: 0.0 ± 0.0 % ID
- radioactivity (% ID) Pancreas [4]: 0.0 ± 0.0 % ID
- radioactivity (% ID) Small intestine [4]: 2.5 ± 0.7 % ID
- radioactivity (% ID) Spleen [4]: 0.2 ± 0.0 % ID
- radioactivity (% ID) Stomach [4]: 0.1 ± 0.1 % ID
